Laboratory results as given in US20120172293A1 (Takeda / Millennium, published 2012).
Non-standard residues stand in square brackets, D forms with d. *: point of attachment. X11 = ((1S)-1-carboxy-3-methylbutyl)carbamoyl, CC(C)C[C@H](NC(=O)*)C(=O)O; X10 = Tetrahydro‑2H‑pyran‑4‑yl‑carbamoyl, O=C(NC1CCOCC1)*; Phe(3-Me) = Cc1cccc(C[C@H](N)C(=O)O)c1; Phe(2-Me) = Cc1ccccc1C[C@H](N)C(=O)O; tBuAla = CC(C)(C)C[C@H](N)C(=O)O; Cha = N[C@@H](CC1CCCCC1)C(=O)O; Aib = CC(C)(N)C(=O)O

T1: human Y2 receptor (human, UniProt P49146 1-381)
T1 construct: whole, on cells; used as membrane fraction of CHO/dhfr- cells stably expressing hY2R; also called hY2R; human NPY2R
T1 sequence (looked up): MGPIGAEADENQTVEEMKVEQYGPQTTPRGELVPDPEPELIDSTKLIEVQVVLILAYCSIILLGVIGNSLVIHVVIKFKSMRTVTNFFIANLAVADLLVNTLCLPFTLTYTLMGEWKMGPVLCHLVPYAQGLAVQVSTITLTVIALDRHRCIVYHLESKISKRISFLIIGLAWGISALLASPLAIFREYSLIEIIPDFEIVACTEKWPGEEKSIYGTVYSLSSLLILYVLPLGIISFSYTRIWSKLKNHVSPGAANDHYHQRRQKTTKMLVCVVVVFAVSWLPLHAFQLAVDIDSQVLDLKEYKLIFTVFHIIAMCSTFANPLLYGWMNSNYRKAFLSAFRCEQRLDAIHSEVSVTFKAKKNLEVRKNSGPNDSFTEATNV

B1: Ac-[Glu23, D-Pro24, Cha27,28, Lys30, Aib31, Phe(2Me)36]-PYY(23-36) (peptide)
peptide: Ac-E[dP]RH[Cha][Cha]NK[Aib]TRQR[Phe(2-Me)]-NH2
SMILES: CC(=O)N[C@@H](CCC(=O)O)C(=O)N1CCC[C@@H]1C(=O)N[C@@H](CCCNC(=N)N)C(=O)N[C@@H](Cc1c[nH]cn1)C(=O)N[C@@H](CC1CCCCC1)C(=O)N[C@@H](CC1CCCCC1)C(=O)N[C@@H](CC(N)=O)C(=O)N[C@@H](CCCCN)C(=O)NC(C)(C)C(=O)N[C@H](C(=O)N[C@@H](CCCNC(=N)N)C(=O)N[C@@H](CCC(N)=O)C(=O)N[C@@H](CCCNC(=N)N)C(=O)N[C@@H](Cc1ccccc1C)C(N)=O)[C@@H](C)O
notes: also called compound No. 256
B2: Ac-[Glu23, D-Pro24, Cha27,28, Lys30, Aib31, Phe(3Me)36]-PYY(23-36) (peptide)
peptide: Ac-E[dP]RH[Cha][Cha]NK[Aib]TRQR[Phe(3-Me)]-NH2
SMILES: CC(=O)N[C@@H](CCC(=O)O)C(=O)N1CCC[C@@H]1C(=O)N[C@@H](CCCNC(=N)N)C(=O)N[C@@H](Cc1c[nH]cn1)C(=O)N[C@@H](CC1CCCCC1)C(=O)N[C@@H](CC1CCCCC1)C(=O)N[C@@H](CC(N)=O)C(=O)N[C@@H](CCCCN)C(=O)NC(C)(C)C(=O)N[C@H](C(=O)N[C@@H](CCCNC(=N)N)C(=O)N[C@@H](CCC(N)=O)C(=O)N[C@@H](CCCNC(=N)N)C(=O)N[C@@H](Cc1cccc(C)c1)C(N)=O)[C@@H](C)O
notes: also called compound No. 259
B3: Tetrahydro-2H-pyran-4-yl-carbamoyl-[Glu23, D-Pro24, Cha27,28,36, Lys30, Aib31]-PYY(23-36) (peptide)
peptide: X10-E[dP]RH[Cha][Cha]NK[Aib]TRQR[Cha]-NH2
SMILES: C[C@@H](O)[C@H](NC(=O)C(C)(C)NC(=O)[C@H](CCCCN)NC(=O)[C@H](CC(N)=O)NC(=O)[C@H](CC1CCCCC1)NC(=O)[C@H](CC1CCCCC1)NC(=O)[C@H](Cc1c[nH]cn1)NC(=O)[C@H](CCCNC(=N)N)NC(=O)[C@H]1CCCN1C(=O)[C@H](CCC(=O)O)NC(=O)NC1CCOCC1)C(=O)N[C@@H](CCCNC(=N)N)C(=O)N[C@@H](CCC(N)=O)C(=O)N[C@@H](CCCNC(=N)N)C(=O)N[C@@H](CC1CCCCC1)C(N)=O
notes: also called compound No. 230
B4: [(1S)-1-carboxy-3-methylbutyl]carbamoyl-[Glu23, D-Pro24, Cha27,28,36, Lys30, Aib31]-PYY(23-36) (peptide)
peptide: X11-E[dP]RH[Cha][Cha]NK[Aib]TRQR[Cha]-NH2
SMILES: CC(C)C[C@H](NC(=O)N[C@@H](CCC(=O)O)C(=O)N1CCC[C@@H]1C(=O)N[C@@H](CCCNC(=N)N)C(=O)N[C@@H](Cc1c[nH]cn1)C(=O)N[C@@H](CC1CCCCC1)C(=O)N[C@@H](CC1CCCCC1)C(=O)N[C@@H](CC(N)=O)C(=O)N[C@@H](CCCCN)C(=O)NC(C)(C)C(=O)N[C@H](C(=O)N[C@@H](CCCNC(=N)N)C(=O)N[C@@H](CCC(N)=O)C(=O)N[C@@H](CCCNC(=N)N)C(=O)N[C@@H](CC1CCCCC1)C(N)=O)[C@@H](C)O)C(=O)O
notes: also called compound No. 254
B5: [(1S)-5-Amino-1-carboxypentyl]carbamoyl-[D-Pro24, Cha27,28,36, Aib31]-PYY(23-36) (peptide)
peptide: {((1S)-5-amino-1-carboxypentyl)carbamoyl}-S[dP]RH[Cha][Cha]NL[Aib]TRQR[Cha]-NH2
notes: calculated mass 1980.2 fits the name; also called compound No. 323
B6: [(1S)-1-carboxy-3-methylbutyl]carbamoyl-[D-Pro24, Cha27,36, Leu(Me)28, Lys30, Aib31]-PYY(23-36) (peptide)
peptide: X11-S[dP]RH[Cha][tBuAla]NK[Aib]TRQR[Cha]-NH2
SMILES: CC(C)C[C@H](NC(=O)N[C@@H](CO)C(=O)N1CCC[C@@H]1C(=O)N[C@@H](CCCNC(=N)N)C(=O)N[C@@H](Cc1c[nH]cn1)C(=O)N[C@@H](CC1CCCCC1)C(=O)N[C@@H](CC(C)(C)C)C(=O)N[C@@H](CC(N)=O)C(=O)N[C@@H](CCCCN)C(=O)NC(C)(C)C(=O)N[C@H](C(=O)N[C@@H](CCCNC(=N)N)C(=O)N[C@@H](CCC(N)=O)C(=O)N[C@@H](CCCNC(=N)N)C(=O)N[C@@H](CC1CCCCC1)C(N)=O)[C@@H](C)O)C(=O)O
notes: also called compound No. 253

Assays:
[1] = target: T1, human Y2 receptor; experiment: RBA: displacement of [125I]-PYY from hY2R/CHO membranes
Experimental: After incubation at room temperature for 60 minutes, the mixture was filtered through the cell harvester FilterMate (PerkinElmer) using UniFilter-96 GF/C treated with polyethylenimine (PEI) solution (20 mM Tris, 0.3% PEI, pH 7.4), and the filter was washed 3 times with a filtering buffer (50 mM Tris, 5 mM MgCl₂, 150 mM NaCl, 0.03% NaN₃, 0.05% CHAPS, pH 7.4). Thereafter, UniFilter-96 GF/C was dried in a mechanical drier for 1 hour, 15 μl of the liquid scintillator MicroScint O (PerkinElmer) was added to each well, and a measurement was taken using TopCount (PerkinElmer). The data obtained were analyzed using Prism to calculate the IC₅₀ value.

[2] = target: T1, human Y2 receptor; experiment: cell-based or functional assay

Binder | IC50 Ratio [1] | GBA EC50 Ratio ([35S]GTPγS binding) [2]
B1 | 1.7 IC50 compound/IC50 PYY(3-36) | 1.2 EC50 compound/EC50 PYY(3-36)
B2 | 1.1 IC50 compound/IC50 PYY(3-36) | 0.93 EC50 compound/EC50 PYY(3-36)
B3 | 0.89 IC50 compound/IC50 PYY(3-36) | 2.5 EC50 compound/EC50 PYY(3-36)
B4 | 2.8 IC50 compound/IC50 PYY(3-36) | 1.5 EC50 compound/EC50 PYY(3-36)
B5 | 1.3 IC50 compound/IC50 PYY(3-36) | 0.95 EC50 compound/EC50 PYY(3-36)
B6 | 1.1 IC50 compound/IC50 PYY(3-36) | 0.85 EC50 compound/EC50 PYY(3-36)
